± gives the uncertainty stated by the source.
Test: self-splicing fitness, log relative to wild type (ln ratio); higher = more splicing; Tetrahymena group I intron in knt gene, E. coli kanamycin selection, DiMSum; sequences stand for … in CUCUCU…GGAGGGAAAAGUUAUCAGGCAUGCACCUGGUAGCUAGUCUUUAAACCAAUAGAUUGCAUCGGUUUAAAAGGCAAGACCGUCAAAUUGCGGGAAAGGGGUCAACAGCCGUUCAGUACCAAGUCUCAGGGGAAACUUUGAGAUGGCCUUGCAAAGGGUAUGGUAAUAAGCUGACGGACAUGGUCCUAACCACGCAGCCAAGUCCUAAGUCAACAGAUCUUCUGUUGAUAUGGAUGCAGUUCACAGACUAAAUGUCGGUCGGGGAAGAUGUAUUCUUCUCAUAAGAUAUAGUCGGACCUCUCCUUAAUGGGAGCUAGCGGAUGAAGUGAUGCAACACUGGAGCCGCUGGGAACUAAUUUGUAUGCGAAAGUAUAUUGAUUAGUUUUGGAGUACUCGUGGUCG
Outline: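 Fitness was computed with DiMSum as the error-weighted combination of replicate fold changes, kanamycin versus none, each normalised to wild type. The library randomised all eight intron nucleotides of the P1ex region, with the intron placed in the knt kanamycin-resistance gene on pET-22b(+) in E. coli BL21(DE3). Six replicate transformations were grown overnight at 37°C or 30°C on LB agar with or without 25 μg/mL kanamycin, plus 100 μg/mL carbenicillin, 50 μM IPTG and 0.2% rhamnose. Pooled colonies were amplicon-sequenced on an Illumina HiSeq 2500.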

Sequence | self-splicing fitness (ln) (30 °C) | self-splicing fitness (ln) (37 °C)
UCGAAGCAAUAUUACGACGA | -0.904 ± 0.12 | -0.374 ± 0.11
UCGAAGCAAUAUUACGAUAU | -2.63 ± 0.31 | -1.52 ± 0.32
UCGAAGCAAUAUUACGAUCU | -2.67 ± 0.21 | -2.44 ± 0.27
UCGAAGCAAUAUUACGAUUG | -2.47 ± 0.27 | -1.73 ± 0.23
UCGAAGCAAUAUUACGCCCU | -2.45 ± 0.2 | -1.7 ± 0.13
UCGAAGCAAUAUUACGCCUG | -0.508 ± 0.14 | -0.022 ± 0.21
UCGAAGCAAUAUUACGGAAG | -1.18 ± 0.2 | -2.11 ± 0.38
UCGAAGCAAUAUUACGGCGA | -0.741 ± 0.12 | -0.539 ± 0.17
UCGAAGCAAUAUUACGGGGA | -1.17 ± 0.13 | -0.644 ± 0.13
UCGAAGCAAUAUUACGGGUG | -0.763 ± 0.083 | -0.756 ± 0.097
UCGAAGCAAUAUUACGGUGC | -2.62 ± 0.25 | 
UCGAAGCAAUAUUACGUAAC | -2.1 ± 0.19 | -2.77 ± 0.38
UCGAAGCAAUAUUACGUACU | -2.88 ± 0.1 | -1.67 ± 0.12
UCGAAGCAAUAUUACGUGUU | -3.56 ± 0.2 | -2.47 ± 0.19
UCGCAGCAAUAUUACGAAAG |  | -2.04 ± 0.36
UCGCAGCAAUAUUACGAAAU | -3.62 ± 0.21 | -2.41 ± 0.24
UCGCAGCAAUAUUACGACAA | -1.14 ± 0.19 | -1.48 ± 0.2
UCGCAGCAAUAUUACGACAC | -1.67 ± 0.26 | -2.78 ± 0.41
UCGCAGCAAUAUUACGACUU | -1.84 ± 0.2 | -0.512 ± 0.24
UCGCAGCAAUAUUACGAGAC | -3.18 ± 0.35 | -1.6 ± 0.4
UCGCAGCAAUAUUACGAGUC |  | -2.6 ± 0.38
UCGCAGCAAUAUUACGAUAG | -2.26 ± 0.15 | -1.26 ± 0.17
UCGCAGCAAUAUUACGCAAG | -3.01 ± 0.17 | -1.69 ± 0.25
UCGCAGCAAUAUUACGCCCA | -0.827 ± 0.19 | 0.0722 ± 0.18
UCGCAGCAAUAUUACGCGCG | -3.58 ± 0.29 | -2.08 ± 0.27
UCGCAGCAAUAUUACGCUCC | -2.9 ± 0.46 | 

Sequence | self-splicing fitness (ln) (30 °C) | self-splicing fitness (ln) (37 °C)
UCGCAGCAAUAUUACGCUCU | -3.55 ± 0.23 | -1.35 ± 0.13
UCGCAGCAAUAUUACGGCAU | -1.99 ± 0.074 | -0.415 ± 0.077
UCGCAGCAAUAUUACGGCUA | 0.198 ± 0.091 | 0.317 ± 0.098
UCGCAGCAAUAUUACGGGGA | -1.31 ± 0.12 | -1.11 ± 0.1
UCGCAGCAAUAUUACGUGAG | -0.263 ± 0.042 | -0.325 ± 0.063
UCGCAGCAAUAUUACGUGCA | -2.17 ± 0.074 | -0.836 ± 0.071
UCGCAGCAAUAUUACGUGCC | -2.66 ± 0.21 | -2.7 ± 0.36
UCGCAGCAAUAUUACGUUGC |  | -4.15 ± 0.42
UCGGAGCAAUAUUACGACGG | -3.56 ± 0.43 | -1.36 ± 0.29
UCGGAGCAAUAUUACGAGGC | -2.74 ± 0.42 | 
UCGGAGCAAUAUUACGAGUU | -2.79 ± 0.33 | 
UCGGAGCAAUAUUACGCACG | -3.16 ± 0.34 | -0.819 ± 0.16
UCGGAGCAAUAUUACGCAGC | -2.31 ± 0.5 | 
UCGGAGCAAUAUUACGCGAG | -3.29 ± 0.45 | -1.64 ± 0.27
UCGGAGCAAUAUUACGCGGA | -2.32 ± 0.33 | 0.916 ± 0.15
UCGGAGCAAUAUUACGGAAC | -3.36 ± 0.38 | 
UCGGAGCAAUAUUACGGAAG |  | -0.371 ± 0.41
UCGGAGCAAUAUUACGGAGC |  | -1.64 ± 0.4
UCGGAGCAAUAUUACGGUCG | -2.01 ± 0.15 | -0.73 ± 0.25
UCGGAGCAAUAUUACGUCCA | -2.06 ± 0.48 | -0.639 ± 0.37
UCGUAGCAAUAUUACGAACU | -3.21 ± 0.38 | -2.63 ± 0.33
UCGUAGCAAUAUUACGACAA | -2.42 ± 0.29 | -1.5 ± 0.24
UCGUAGCAAUAUUACGAGAC | -1.72 ± 0.37 | -3.18 ± 0.37
UCGUAGCAAUAUUACGAGGU | -3.27 ± 0.21 | -2.06 ± 0.19
UCGUAGCAAUAUUACGCAGG | -2.49 ± 0.18 | -2.17 ± 0.21
